Test results: the supplement of paper PMC12764529
± gives the half width of the 95% confidence interval.

test: folding stability dG unfold from trypsin proteolysis; higher = more stable
Method in brief: (§1)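 Mini-proteins designed to be under 80 residues and free of cysteine were carried in a PA-tagged cDNA display construct and digested with trypsin and with chymotrypsin. Each protease was applied at 11 threefold-diluted concentrations, alongside a no-protease condition, before sequencing. K50 came from Bayesian fitting of the sequencing counts, and unfolding free energy was obtained by comparing it with a sequence-predicted unfolded-state K50 and a shared folded-state K50, for each protease separately or for both together. Designs were retained only if their AlphaFold2 dimer inter-PAE exceeded 15.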

| Sequence | folding stability dG unfold [kcal/mol] |
| --- | --- |
| SMKLKPGQTAKIVEIKENYIYIEVNGKKYKISLEELKEKGYEIKIVNGKIVEIRPKPKKKLSEEELKKLKSA [r9_842_TrROS_Hall] | 1.13 ± 0.077 |
| SAGGSAVSISTVTSTSFPGSGTSVKTYETPDFTVTVTTTRDPNGADTVEIHTDDPEAEKTVREYLASAGGSA [r15_42_JUSTAS] | 0.601 ± 0.049 |
| SAGGSAGGSMTFSSEEEAEAFIAQLPPDSEVEVEIKDPNTDKTTKYKIKVPPEQPVYSPKGVLSAGGSAGGS [r12_393_JUSTAS] | 0.308 ± 0.11 |
| MPNLKPALLVIPMKVESIEEAEEKVLAFAEELAEAFPNIKKIEVEILEIDEENGIVIAKITVEAEDSALDAS [r1_52_TrMRF] | 2.12 ± 0.1 |
| SAGMVITISSDLSPEEVLATAQALAAELGAKKVEVERDPANPDVVTVTVEFPGLGKTVTVNVLPPELLESAG [r5_912_JUSTAS] | 1.28 ± 0.059 |
| SAGGSAGGSAGGEKPKYIIIPATLTVPVLTKEGEGEKVEYKEITLLLIINPDTNEITVSSAGGSAGGSAGGS [r10_533_TrMRF] | 2.7 ± 0.15 |
| SAGGKYGYKIEIEIAIFRIPPGAEVEPERIGNIEIYRIRFPDGNWLIMIRIKVKPMPPPPPEKKDNDDSAGG [r13_804_TrROS] | 3.61 ± 0.22 |
| SAGGSAGGSDVEVEEVDVEIEVNGKKFKVKIYRNKKDKNRYYIFFEDTGKVFEIDKNGNIRPLSAGGSAGGS [r12_580_TrROS_Hall] | 2.74 ± 0.1 |
| SSMTLVTVEMEITLRTPEGGSETLKRTFEREVSPDDPAAVEAAVEAAKEEIREAHPDVVEVRVVKVDTALSA [r9_436_JUSTAS] | 4.06 ± 0.089 |
| SMEIDPGPGVIRLRFEAPLVDPEHPRLLTLRLEPVIEVSPDGTLRVREVRLVGFSPDGELLFERPFTLDLSA [r9_383_TrMRF] | 1.865 ± 0.017 |
| SAGGSAGGYWKVEIKNGMTFSIPGMTLDEAKNHARWHGFPMPIDKIEIEPVKPPPPPPKDPDDQSAGGSAGG [r6_688_TrROS] | 2.27 ± 0.14 |
| SAGGSAKKKEKKVEKKVITIEVEPGVKTPEEMLEAIRKLKEEYPDTKIIIKASDEQKEALKRLLKESAGGSA [r15_89_TrROS_Hall] | 0.669 ± 0.16 |
| SAGGSAGGSAGGDSNVDNFTLMFPWGWVVKIDITYTDGGLETDWEIIEPVPPLPPDDKNKSAGGSAGGSAGG [r7_845_TrROS] | 1.6 ± 0.081 |
| SAGMMTVEELKEKLKEAAEKAGVKVKEIKITGPDGKEITVEVDLSEEQLKKLAEELGLEIDEVEVREPSAGG [r19_50_TrROS_Hall] | 1.3 ± 0.099 |
| SAGGPWHEQKHEITDPDDGKPIKISHTHYPDGYPRVRIELNNGKKIEFMVPPNGPPTPDQLLDAIKQFSAGG [r13_492_TrROS] | 0.317 ± 0.092 |
| SAGGSAGGSEEREYVEVEFEFLARLEDGSLLVTRVRLLLPAEPAELRPEVRSEVLPLAPGEELSAGGSAGGS [r12_811_TrMRF] | 1.48 ± 0.071 |
| SAGGDLKIEIEPYRMGDYPMYEVKIEDPDGKDITLWMNSNNGQMMVFYPNGKPRRVDSAEDVLEALKSAGGS [r8_168_TrROS] | -0.243 ± 0.16 |
| SAGGKKKKKKKKKKKKKVKVRVRIVVENKNGEKKEIEIELKGLTLEELKKLAKELEKKGFKVKKIEIESAGG [r13_227_TrROS_Hall] | 3.28 ± 0.3 |
| SAGGSAGGSAGGSIEIEITVELEDGYYLRISARFELNEDGSLKLEIKIELIKIEPGQELSAGGSAGGSAGGS [r10_241_TrROS_Hall] | 3.52 ± 0.48 |
| SAGGSAGGSEEKTVLARIKITFPDGEKREIEVEMTLDELKKLLEELGLSEEEVKIEVELVPLPSAGGSAGGS [r20_154_TrROS_Hall] | 3.99 ± 0.11 |
| SAGGEPMKIRIEIYRMKRKKDPKDGKEKWDMRPVPEYEIPFPPGETLLDILDKLPLPPGYMIKRISIESAGG [r13_716_TrROS] | 2.28 ± 0.097 |

test: folding stability dG unfold (combined trypsin and chymotrypsin); higher = more stable
Method in brief: as §1

| Sequence | folding stability dG unfold [kcal/mol] |
| --- | --- |
| SAGGSAGGSKAGQPIEGPVKIKFTSNGKPHEIDVEVYVLPPGNLIIYFPDESIMLPADNIEIESAGGSAGGS [r12_790_TrROS] | 1.6 ± 0.063 |
| SAGGSAGGSMSEELLAEGPVRIRVRVRNKDGSVEEIEVEAGEEIELPEELKNQDVEIVSIEPVSAGGSAGGS [r12_161_TrROS_Hall] | 1.74 ± 0.089 |
| SAGGSAGGGMEPVTETITVPITTPEELEAVKKEAEARREKEGLVSYEISESPDGTVTITITKPVSAGGSAGG [r6_730_JUSTAS] | 0.427 ± 0.34 |
| SAGGSAMESFLGAAKEVLSQMEPGEIVLLPLERPDDKPLLVLLDPTTRRLVVFYPDGGYEEFDFPESAGGSA [r15_977_TrMRF] | 2.86 ± 0.079 |
| SATTTLNLSSVEELKELVEKLIAEGNPEATLTVTLYPPSGESSTKSFSSVEEVIEELKKGPASVTITVTSSA [r9_589_JUSTAS] | 2.56 ± 0.049 |
| SDEDLEILRVEATPDTIRILFKIPSNPDLYIEVPITVFEDETSRRILINARILRPETGEVIAEIPFEIPLSA [r9_18_TrMRF] | 3.78 ± 0.24 |
| SAGGSAKTVTVEVTLEDGTKITVTVPEDMSEEERKALAQELAEELREKLRQLRELEKEGKEVRIEPSAGGSA [r15_704_TrROS_Hall] | 2.23 ± 0.051 |
| SAGGKSVHIPGLSFEDLRDLIRNLPEPVTIHIEMPMRYPMYKYENGKPKEWQRQEMPMTSTFKIPPDDSAGG [r13_632_TrROS] | -0.565 ± 0.23 |
| SAMPEKRFYTYEIPIPPGFKADEPFVGTVTLEEKTLPIKIGSIPDVPPDATVRLTVDLDTAEFRVELLPSAG [r14_554_TrMRF] | 1.16 ± 0.2 |
| SAGGSAGGSAGGGPAPGKGLVVKLEPEEFEFENFRLIVVKAVKDDKLIAEIAYLISPDESAGGSAGGSAGGS [r10_628_TrMRF] | 0.904 ± 0.12 |
| SAGGSAGGGGVAEEVAALLKALGLKVKKIEVEVEEVPPDKKVARVKVTAELPTKKVTFELRVEVSAGGSAGG [r6_532_TrMRF] | 2.76 ± 0.28 |
| SAGGSAELVSVDVELEGRYLRVRARFRLPDGREVEVEVRFSLPGVPPAPPVFPYRDPETGELRLGLSAGGSA [r15_335_TrMRF] | 3.57 ± 0.14 |
| SAGGPPVIRFPTAEIPASGTIEDIVAAIERATGEPLPEELVEQILNGKTIEEIIELLKKRGYPVEYLSAGGS [r16_601_JUSTAS] | 3.33 ± 0.088 |
| SAGGGKLFVTEDAVLLELLYPETGEPYLAVFNPPTGLVTVYFPNRLKALFKIDPDGNLTLVKIEPANSAGGS [r16_127_TrMRF] | 2.69 ± 0.078 |
| SAGGMPLEDMSLEELKARLEEALEELRAKLPPGEKKTLTLTVTLTVVDKETGETRTVTLTVTLTLPAPSAGG [r13_385_TrROS_Hall] | 4.16 ± 0.076 |
| SAGGSAGGANDPEMPKPKRVEITIPPDEEIRNPNGKEMPVEQAREYAEYLADRYGIDVEITISPSAGGSAGG [r6_162_TrROS] | -0.202 ± 0.41 |
| SAGGSAVVVTTDPNGTLTVYADNKVVKVKVIPLPRPDPLTGSTSTLLLVEVEVSPLKPDPLPPEFPSAGGSA [r15_515_TrMRF] | 2.44 ± 0.2 |
| SAGGSAPEVRLSASREGNTVTVLALKPVGDRTYLVVTTYEVRELGEGFLVLSSSEVIPLPDGEGFFSAGGSA [r15_725_TrMRF] | 2.36 ± 0.032 |
| SAGGSIKVFESESTDPATGKVTTTTTTVTESSEEPTPEAAKNTPPGETTTTTTTTTTTSPVPPGTAASAGGS [r8_274_JUSTAS] | 0.54 ± 0.14 |
| SAGGSAGGSAGPPVTLDEIRDHLPPENIEDVEVNPPEGWVVIEFKPPGGEKQEITIRADDSAGGSAGGSAGG [r17_374_TrROS] | 0.277 ± 0.13 |
| SMKVEIPPELVEAIEKALAEKKPGEEVEIEFEHPDGPLIRVRIEKDGRVRIEVFEHPDKLIAEFEFEPKPSA [r9_132_TrMRF] | 3.14 ± 0.077 |

| Sequence | folding stability dG unfold [kcal/mol] |
| --- | --- |
| SMKLKPGQTAKIVEIKENYIYIEVNGKKYKISLEELKEKGYEIKIVNGKIVEIRPKPKKKLSEEELKKLKSA [r9_842_TrROS_Hall] | 1.16 ± 0.15 |
| SAGGSAVSISTVTSTSFPGSGTSVKTYETPDFTVTVTTTRDPNGADTVEIHTDDPEAEKTVREYLASAGGSA [r15_42_JUSTAS] | 0.337 ± 0.14 |
| SAGGSAGGSMTFSSEEEAEAFIAQLPPDSEVEVEIKDPNTDKTTKYKIKVPPEQPVYSPKGVLSAGGSAGGS [r12_393_JUSTAS] | 1.2 ± 0.14 |
| MPNLKPALLVIPMKVESIEEAEEKVLAFAEELAEAFPNIKKIEVEILEIDEENGIVIAKITVEAEDSALDAS [r1_52_TrMRF] | 2.13 ± 0.19 |
| SAGMVITISSDLSPEEVLATAQALAAELGAKKVEVERDPANPDVVTVTVEFPGLGKTVTVNVLPPELLESAG [r5_912_JUSTAS] | 1.57 ± 0.15 |
| SAGGSAGGSAGGEKPKYIIIPATLTVPVLTKEGEGEKVEYKEITLLLIINPDTNEITVSSAGGSAGGSAGGS [r10_533_TrMRF] | 2.86 ± 0.22 |
| SAGGKYGYKIEIEIAIFRIPPGAEVEPERIGNIEIYRIRFPDGNWLIMIRIKVKPMPPPPPEKKDNDDSAGG [r13_804_TrROS] | 4.22 ± 0.34 |
| SAGGSAGGSDVEVEEVDVEIEVNGKKFKVKIYRNKKDKNRYYIFFEDTGKVFEIDKNGNIRPLSAGGSAGGS [r12_580_TrROS_Hall] | 3.21 ± 0.064 |
| SSMTLVTVEMEITLRTPEGGSETLKRTFEREVSPDDPAAVEAAVEAAKEEIREAHPDVVEVRVVKVDTALSA [r9_436_JUSTAS] | 4.41 ± 0.046 |
| SMEIDPGPGVIRLRFEAPLVDPEHPRLLTLRLEPVIEVSPDGTLRVREVRLVGFSPDGELLFERPFTLDLSA [r9_383_TrMRF] | 2.16 ± 0.066 |
| SAGGSAGGYWKVEIKNGMTFSIPGMTLDEAKNHARWHGFPMPIDKIEIEPVKPPPPPPKDPDDQSAGGSAGG [r6_688_TrROS] | 2.75 ± 0.35 |
| SAGGSAKKKEKKVEKKVITIEVEPGVKTPEEMLEAIRKLKEEYPDTKIIIKASDEQKEALKRLLKESAGGSA [r15_89_TrROS_Hall] | 0.767 ± 0.3 |
| SAGGSAGGSAGGDSNVDNFTLMFPWGWVVKIDITYTDGGLETDWEIIEPVPPLPPDDKNKSAGGSAGGSAGG [r7_845_TrROS] | 2.77 ± 0.12 |
| SAGMMTVEELKEKLKEAAEKAGVKVKEIKITGPDGKEITVEVDLSEEQLKKLAEELGLEIDEVEVREPSAGG [r19_50_TrROS_Hall] | 1.67 ± 0.2 |
| SAGGPWHEQKHEITDPDDGKPIKISHTHYPDGYPRVRIELNNGKKIEFMVPPNGPPTPDQLLDAIKQFSAGG [r13_492_TrROS] | 0.478 ± 0.11 |
| SAGGSAGGSEEREYVEVEFEFLARLEDGSLLVTRVRLLLPAEPAELRPEVRSEVLPLAPGEELSAGGSAGGS [r12_811_TrMRF] | 2.22 ± 0.16 |
| SAGGDLKIEIEPYRMGDYPMYEVKIEDPDGKDITLWMNSNNGQMMVFYPNGKPRRVDSAEDVLEALKSAGGS [r8_168_TrROS] | 0.149 ± 0.1 |
| SAGGKKKKKKKKKKKKKVKVRVRIVVENKNGEKKEIEIELKGLTLEELKKLAKELEKKGFKVKKIEIESAGG [r13_227_TrROS_Hall] | 3.34 ± 0.39 |
| SAGGSAGGSAGGSIEIEITVELEDGYYLRISARFELNEDGSLKLEIKIELIKIEPGQELSAGGSAGGSAGGS [r10_241_TrROS_Hall] | 3.18 ± 0.32 |
| SAGGSAGGSEEKTVLARIKITFPDGEKREIEVEMTLDELKKLLEELGLSEEEVKIEVELVPLPSAGGSAGGS [r20_154_TrROS_Hall] | 3.8 ± 0.087 |
| SAGGEPMKIRIEIYRMKRKKDPKDGKEKWDMRPVPEYEIPFPPGETLLDILDKLPLPPGYMIKRISIESAGG [r13_716_TrROS] | 2.13 ± 0.32 |
